Results from publication doi:10.1101/2023.05.26.542392.

Target: R203M mutant of full-length SARS-CoV-2 nucleocapsid (R203M-FLN) (SARS-CoV-2)
Assay: AUC

Work on “R203M mutant of full-length SARS-CoV-2 nucleocapsid (R203M-FLN) (natural protein)” yielded a stoichiometry N of 2.
